Target: recombinant human NPR3 protein, extracellular domain amino acids Gly27-Ser482 fused to the Fc portion of mouse IgG2a at the NPR3 C-terminus (human; mouse) (UniProt P17342)
Assay: ELISA-based blocking assay on coated hNPR3-mFc, competitor biotin-hANP 200 pM; categorized as a non-blocker

Sequence of UniProt P17342 (P17342 27-482 limits assumed): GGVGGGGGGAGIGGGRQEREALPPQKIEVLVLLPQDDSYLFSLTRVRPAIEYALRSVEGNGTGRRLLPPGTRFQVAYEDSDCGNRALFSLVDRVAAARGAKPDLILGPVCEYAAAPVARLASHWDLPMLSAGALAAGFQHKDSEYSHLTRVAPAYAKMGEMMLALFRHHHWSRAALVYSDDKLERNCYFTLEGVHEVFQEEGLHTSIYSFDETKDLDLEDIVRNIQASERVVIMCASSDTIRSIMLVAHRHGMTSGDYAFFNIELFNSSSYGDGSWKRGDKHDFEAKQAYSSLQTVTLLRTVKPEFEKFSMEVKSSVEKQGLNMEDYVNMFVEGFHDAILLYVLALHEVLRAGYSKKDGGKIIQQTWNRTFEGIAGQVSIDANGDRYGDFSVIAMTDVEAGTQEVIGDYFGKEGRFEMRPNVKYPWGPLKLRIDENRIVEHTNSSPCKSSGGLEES

percent blockade: 32%
Substance: non-binding human IgG1 isotype control antibody (ELISA blocking assay)
